Data as given in article PMC10786891, “Massively parallel profiling of RNA-targeting CRISPR-Cas13d”.
Positions count from the first letter of the chain named. In names and notes the source's numbering stands.

T1: EsCas13d, nuclease-dead (Eubacterium siraeum, UniProt B0MS50, R295A;H300A;R849A;H854A)
T1 sequence: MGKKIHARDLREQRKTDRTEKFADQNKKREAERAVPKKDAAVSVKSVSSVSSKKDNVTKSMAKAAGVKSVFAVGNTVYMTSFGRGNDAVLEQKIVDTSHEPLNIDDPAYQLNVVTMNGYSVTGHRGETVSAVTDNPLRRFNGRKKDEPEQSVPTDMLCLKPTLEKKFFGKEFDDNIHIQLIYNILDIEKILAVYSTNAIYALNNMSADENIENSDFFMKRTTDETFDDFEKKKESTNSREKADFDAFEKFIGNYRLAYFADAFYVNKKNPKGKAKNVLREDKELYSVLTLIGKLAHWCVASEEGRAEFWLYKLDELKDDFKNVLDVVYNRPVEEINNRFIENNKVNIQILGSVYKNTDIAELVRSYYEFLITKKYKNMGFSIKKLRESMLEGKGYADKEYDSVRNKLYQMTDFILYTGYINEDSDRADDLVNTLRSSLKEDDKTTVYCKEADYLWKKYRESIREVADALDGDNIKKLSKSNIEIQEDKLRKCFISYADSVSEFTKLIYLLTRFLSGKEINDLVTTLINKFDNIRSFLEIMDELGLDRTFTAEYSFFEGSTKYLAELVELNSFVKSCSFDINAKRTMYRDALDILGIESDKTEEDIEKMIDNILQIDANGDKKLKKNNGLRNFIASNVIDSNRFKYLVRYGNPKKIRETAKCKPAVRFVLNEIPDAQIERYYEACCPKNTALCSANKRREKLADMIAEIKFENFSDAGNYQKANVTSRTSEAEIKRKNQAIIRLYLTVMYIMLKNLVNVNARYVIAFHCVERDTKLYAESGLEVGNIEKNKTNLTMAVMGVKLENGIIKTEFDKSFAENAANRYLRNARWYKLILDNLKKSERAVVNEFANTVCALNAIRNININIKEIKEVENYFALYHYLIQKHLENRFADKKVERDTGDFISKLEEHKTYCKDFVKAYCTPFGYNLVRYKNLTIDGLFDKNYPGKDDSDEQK

B1: target 3 insC 3' of 22,insG 3' of 22 (mixed)
RNA 1: CACCCGUGCAAAAUUGCAGGGGUCUAAAACGACCUGAAUAUUUCAGAUCAAA
RNA 2: GGGAAUGGAUCCACAUCUACGAAUUCGUUUCGUUGAUCUGAAAUAUUCAGGUCUGCAGAUCGGAAGAGCACACGU
B2: target 3 U2C,U7A (mixed)
RNA 1: B1 RNA 1
RNA 2: GGGAAUGGAUCCACAUCUACGAAUUCGUUUUUGAUCUGAAAUAUACAGGCCUGCAGAUCGGAAGAGCACACGU
B3: target 3 del4 (mixed)
RNA 1: B1 RNA 1
RNA 2: GGGAAUGGAUCCACAUCUACGAAUUCGUUUUUGAUCUGAAAUAUUCAGUCUGCAGAUCGGAAGAGCACACGU
B4: target 3 insG 3' of 16,insU 3' of 3 (mixed)
RNA 1: B1 RNA 1
RNA 2: GGGAAUGGAUCCACAUCUACGAAUUCGUUUUUGAUCGUGAAAUAUUCAGGUUCUGCAGAUCGGAAGAGCACACGU
B5: target 3 C1U,U21A (mixed)
RNA 1: B1 RNA 1
RNA 2: B2 RNA 2 with U31A, A45U, C50U, C51U
B6: target 3 insA 3' of 10,insU 3' of 3 (mixed)
RNA 1: B1 RNA 1
RNA 2: B4 RNA 2 with G37U, U38G, G39A, A42U, U43A
B7: target 3 C6U,U22A (mixed)
RNA 1: B1 RNA 1
RNA 2: B2 RNA 2 with U30A, A45U, C46U, C50U
B8: target 3 G3U,A9G (mixed)
RNA 1: B1 RNA 1
RNA 2: B2 RNA 2 with A43G, A45U, G49U, C50U
B9: target 3 C6U,U8C (mixed)
RNA 1: B1 RNA 1
RNA 2: B2 RNA 2 with U44C, A45U, C46U, C50U
B10: target 3 insA 3' of 8,insG 3' of 6 (mixed)
RNA 1: B1 RNA 1
RNA 2: GGGAAUGGAUCCACAUCUACGAAUUCGUUUUUGAUCUGAAAUAUAUCGAGGUCUGCAGAUCGGAAGAGCACACGU
B11: target 3 insG 3' of 22,insA 3' of 2 (mixed)
RNA 1: B1 RNA 1
RNA 2: B4 RNA 2 with U31G, G33U, A34G, U35A, C36U, G37C, U52A
B12: target 3 insU 3' of 14,insG 3' of 5 (mixed)
RNA 1: B1 RNA 1
RNA 2: B4 RNA 2 with G37U, U38G, G39U, U51G
B13: target 3 G3A (mixed)
RNA 1: B1 RNA 1
RNA 2: B2 RNA 2 with A45U, G49A, C50U
B14: target 3 insG 3' of 8,insC 3' of 5 (mixed)
RNA 1: B1 RNA 1
RNA 2: B10 RNA 2 with A45G, G48A, A49C
B15: target 3 insC 3' of 8,insA 3' of 6 (mixed)
RNA 1: B1 RNA 1
RNA 2: B10 RNA 2 with A45C, G48A
B16: target 3 U7G,U8C (mixed)
RNA 1: B1 RNA 1
RNA 2: B2 RNA 2 with U44C, A45G, C50U
B17: target 3 C6G,A18G (mixed)
RNA 1: B1 RNA 1
RNA 2: B2 RNA 2 with A34G, A45U, C46G, C50U
B18: target 3 G4U (mixed)
RNA 1: B1 RNA 1
RNA 2: B2 RNA 2 with A45U, G48U, C50U
B19: target 3 C6G,U8G (mixed)
RNA 1: B1 RNA 1
RNA 2: B2 RNA 2 with U44G, A45U, C46G, C50U
B20: target 3 G19U,U21A (mixed)
RNA 1: B1 RNA 1
RNA 2: B2 RNA 2 with U31A, G33U, A45U, C50U
B21: target 3 C1A,G3A (mixed)
RNA 1: B1 RNA 1
RNA 2: B2 RNA 2 with A45U, G49A, C50U, C51A
B22: target 3 insA 3' of 22,insG 3' of 8 (mixed)
RNA 1: B1 RNA 1
RNA 2: GGGAAUGGAUCCACAUCUACGAAUUCGUUUAUUGAUCUGAAAUAUGUCAGGUCUGCAGAUCGGAAGAGCACACGU
B23: target 3 insC 3' of 4,insC 3' of 3 (mixed)
RNA 1: B1 RNA 1
RNA 2: B10 RNA 2 with A45U, U46C, C47A, A49C, G51C
B24: target 3 insA 3' of 10,insC 3' of 8 (mixed)
RNA 1: B1 RNA 1
RNA 2: B10 RNA 2 with U44A, A45U, U46C, C47U, G48C
B25: target 1 A1G,U3C (mixed)
RNA 1: CACCCGUGCAAAAAUGCAGGGGUCUAAAACUGAGCGGAUAACCUCUCUAUGG
RNA 2: GGGAAUGGAUCCACAUCUACGAAUUCGUACCAUAGAGAGGUUAUCCGCCCGCCGAGAUCGGAAGAGCACACGU
B26: target 1 insG 3' of 16,insG 3' of 9 (mixed)
RNA 1: B25 RNA 1
RNA 2: GGGAAUGGAUCCACAUCUACGAAUUCGUACCAUAGAGGAGGUUAGUCCGCUCACCGAGAUCGGAAGAGCACACGU
B27: target 1 U8C,A18U (mixed)
RNA 1: B25 RNA 1
RNA 2: B25 RNA 2 with A34U, U44C, C49U, G51A
B28: target 1 C6A,A20C (mixed)
RNA 1: B25 RNA 1
RNA 2: B25 RNA 2 with A32C, C46A, C49U, G51A

Molecular target: T1, EsCas13d, nuclease-dead
Assay: crRNA (strand 1, pre-loaded); Mg2+; 40 mM Tris-HCl pH 7.5, 150 mM NaCl, 6 mM MgCl2, 1 mM DTT, 0.1% Tween-20, 0.2 mg/ml BSA; 25 C; 10 min per concentration, then washed
Details: tags: His6-TwinStrep-SUMO cleaved; N-terminal SNAP kept (SNAP-Surface 488); label: 3' end held by stalled T7 RNA polymerase

| Binder | Kd [nM] |
| --- | --- |
| B1 | 65.5 ± 21.5 |
| B2 | 77 ± 23 |
| B3 | 23.6 ± 3 |
| B4 | ~71 |
| B5 | 84 ± 26 |
| B6 | 67.5 ± 17.5 |
| B7 | 13.3 ± 1.4 |
| B8 | 67.5 ± 12 |
| B9 | 33.5 ± 2.95 |
| B10 | 45.5 ± 4.5 |
| B11 | 72 ± 21 |
| B12 | 60.5 ± 19.5 |
| B13 | 46 ± 11.5 |
| B14 | 39 ± 4 |
| B15 | 71 ± 10.5 |
| B16 | 70 ± 11 |
| B17 | 47 ± 9.5 |
| B18 | 4.25 ± 0.335 |
| B19 | 64 ± 8.5 |
| B20 | 99.5 ± 14.5 |
| B21 | 37.5 ± 13.5 |
| B22 | ~90 |
| B23 | 22.9 ± 2.65 |
| B24 | 102 ± 37 |
| B25 | 35 ± 7 |
| B26 | 31 ± 4 |
| B27 | 43 ± 4 |
| B28 | 38 ± 4 |
